Experiment [1] addresses non-human primate (cynomolgus monkey) IL-13 (cynomolgus monkey). Put plainly: cell-based or functional assay.
The target of experiment [2] is native human IL-13 (human) (UniProt P35225). Put plainly: cell-based or functional assay.
Chain of native human IL-13 (human) (P35225 other isoform, or with tags, fused parts or gaps limits assumed): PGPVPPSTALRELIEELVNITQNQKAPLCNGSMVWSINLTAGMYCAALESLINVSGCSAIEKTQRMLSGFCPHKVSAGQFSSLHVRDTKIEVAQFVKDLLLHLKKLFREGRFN

Chain of non-human primate (cynomolgus monkey) IL-13 (cynomolgus monkey) (Q5I6E4 other isoform, or with tags, fused parts or gaps limits assumed): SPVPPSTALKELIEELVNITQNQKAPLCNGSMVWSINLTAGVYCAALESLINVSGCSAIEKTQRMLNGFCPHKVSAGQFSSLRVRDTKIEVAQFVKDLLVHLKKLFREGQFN

B1: antibody with the murine heavy chain of MJ2-7 and a humanized light chain (antibody, part only; not given: humanized light chain, V domains shown, part only)
VH: EVQLQQSGAELVKPGASVKLSCTGSGFNIKDTYIHWVKQRPEQGLEWIGRIDPANDNIKYDPKFQGKATITADTSSNTAYLQLNSLTSEDTAVYYCARSEENWYDFFDYWGQGTTLTVSS
Take B1: the CD23 expression, IC50 in experiment [1] was found to be 0.308 nM. Also, the STAT6 phosphorylation, IC50 in experiment [2] is 0.554 nM.

Values taken from US20090068195A1.
